Source: article PMC9352680, “A comprehensive thermodynamic model for RNA binding by the Saccharomyces cerevisiae Pumilio protein PUF4”

B1: Ie_S2_P3E.2_K3.1_C3.2_H3.1_[+2CC]_A3.1_F3.1_T3.2 (ssRNA)
RNA: UUUGAUUAAUAUGAUAUCGUUCUUUCUCUUGCCUAUAUAUAUUCUUUCUCGAUAUCAUAUUAAUCUUU
B2: Ie_S2_P3E.2_K3.1_C3.2_H3.1_[+2TT]_A3.1_F3.1_T3.2 (ssRNA)
RNA: UUUGAUUAAUAUGAUAUCGUUCUUUCUCUUGUUUAUAUAUAUUCUUUCUCGAUAUCAUAUUAAUCUUU
B3: Ie_S2_P3E.2_K3.1_C3.2_H3.1_[+3CC]_A3.1_F3.1_T3.2 (ssRNA)
RNA: UUUGAUUAAUAUGAUAUCGUUCUUUCUCUUGUCCAUAUAUAUUCUUUCUCGAUAUCAUAUUAAUCUUU
B4: Ie_S2_P3E.2_K3.1_C3.2_H3.1_A3.1_[+5CT]_F3.1_T3.2 (ssRNA)
RNA: UUUGAUUAAUAUGAUAUCGUUCUUUCUCUUGUAUCUAUAUAUUCUUUCUCGAUAUCAUAUUAAUCUUU
B5: Ie_S2_P3E.2_K3.1_C3.2_H3.1_[+3TC]_A3.1_F3.1_T3.2 (ssRNA)
RNA: UUUGAUUAAUAUGAUAUCGUUCUUUCUCUUGUUCAUAUAUAUUCUUUCUCGAUAUCAUAUUAAUCUUU
B6: Ie_S2_P3E.2_K3.1_C3.2_H3.1_[+2CT]_A3.1_F3.1_T3.2 (ssRNA)
RNA: UUUGAUUAAUAUGAUAUCGUUCUUUCUCUUGCUUAUAUAUAUUCUUUCUCGAUAUCAUAUUAAUCUUU
B7: Ie_S2_P3E.2_K3.1_C3.2_H3.1_[+3CT]_A3.1_F3.1_T3.2 (ssRNA)
RNA: UUUGAUUAAUAUGAUAUCGUUCUUUCUCUUGUCUAUAUAUAUUCUUUCUCGAUAUCAUAUUAAUCUUU
B8: Ie_S2_P3E.2_K3.1_C3.2_H3.1_[+4CC]_A3.1_F3.1_T3.2 (ssRNA)
RNA: UUUGAUUAAUAUGAUAUCGUUCUUUCUCUUGUACCUAUAUAUUCUUUCUCGAUAUCAUAUUAAUCUUU
B9: Ie_S2_P3E.2_K3.1_C3.2_H3.1_[+2CTC]_A3.1_F3.1_T3.2 (ssRNA)
RNA: UUUGAUUAAUAUGAUAUCGUUCUUUCUCUUGCUCUAUAUAUAUUCUUUCUCGAUAUCAUAUUAAUCUUU
B10: Ie_S2_P3E.2_K3.1_C3.2_H3.1_[+2TCC]_A3.1_F3.1_T3.2 (ssRNA)
RNA: UUUGAUUAAUAUGAUAUCGUUCUUUCUCUUGUCCUAUAUAUAUUCUUUCUCGAUAUCAUAUUAAUCUUU
B11: Ie_S2_P3E.2_K3.1_C3.2_H3.1_[+2CTT]_A3.1_F3.1_T3.2 (ssRNA)
RNA: UUUGAUUAAUAUGAUAUCGUUCUUUCUCUUGCUUUAUAUAUAUUCUUUCUCGAUAUCAUAUUAAUCUUU
B12: Ie_S2_P3E.2_K3.1_C3.2_H3.1_[+3CCC]_A3.1_F3.1_T3.2 (ssRNA)
RNA: UUUGAUUAAUAUGAUAUCGUUCUUUCUCUUGUCCCAUAUAUAUUCUUUCUCGAUAUCAUAUUAAUCUUU
B13: Ie_S2_P3E.2_K3.1_C3.2_H3.1_[+4CCC]_A3.1_F3.1_T3.2 (ssRNA)
RNA: UUUGAUUAAUAUGAUAUCGUUCUUUCUCUUGUACCCUAUAUAUUCUUUCUCGAUAUCAUAUUAAUCUUU
B14: Ie_S2_P3E.2_K3.1_C3.2_H3.1_[+4CTT]_A3.1_F3.1_T3.2 (ssRNA)
RNA: UUUGAUUAAUAUGAUAUCGUUCUUUCUCUUGUACUUUAUAUAUUCUUUCUCGAUAUCAUAUUAAUCUUU
B15: Ie_S2_P3E.2_K3.1_C3.2_H3.1_[+4CCT]_A3.1_F3.1_T3.2 (ssRNA)
RNA: UUUGAUUAAUAUGAUAUCGUUCUUUCUCUUGUACCUUAUAUAUUCUUUCUCGAUAUCAUAUUAAUCUUU
B16: Ie_S2_P3E.2_K3.1_C3.2_H3.1_[+2TCT]_A3.1_F3.1_T3.2 (ssRNA)
RNA: UUUGAUUAAUAUGAUAUCGUUCUUUCUCUUGUCUUAUAUAUAUUCUUUCUCGAUAUCAUAUUAAUCUUU
B17: Ie_S2_P3E.2_K3.1_C3.2_H3.1_[+3TTC]_A3.1_F3.1_T3.2 (ssRNA)
RNA: UUUGAUUAAUAUGAUAUCGUUCUUUCUCUUGUUUCAUAUAUAUUCUUUCUCGAUAUCAUAUUAAUCUUU
B18: Ie_S2_P3E.2_K3.1_C3.2_H3.1_[+3CTC]_A3.1_F3.1_T3.2 (ssRNA)
RNA: UUUGAUUAAUAUGAUAUCGUUCUUUCUCUUGUCUCAUAUAUAUUCUUUCUCGAUAUCAUAUUAAUCUUU
B19: Ie_S2_P3E.2_K3.1_C3.2_H3.1_[+2TTT]_A3.1_F3.1_T3.2 (ssRNA)
RNA: UUUGAUUAAUAUGAUAUCGUUCUUUCUCUUGUUUUAUAUAUAUUCUUUCUCGAUAUCAUAUUAAUCUUU
B20: Ie_S2_P3E.2_K3.1_C3.2_H3.1_[+2TTC]_A3.1_F3.1_T3.2 (ssRNA)
RNA: UUUGAUUAAUAUGAUAUCGUUCUUUCUCUUGUUCUAUAUAUAUUCUUUCUCGAUAUCAUAUUAAUCUUU
B21: Ie_S2_P3E.2_K3.1_C3.2_H3.1_[+2CTCT]_A3.1_F3.1_T3.2 (ssRNA)
RNA: UUUGAUUAAUAUGAUAUCGUUCUUUCUCUUGCUCUUAUAUAUAUUCUUUCUCGAUAUCAUAUUAAUCUUU
B22: Ie_S2_P3E.2_K3.1_C3.2_H3.1_[+3CTCT]_A3.1_F3.1_T3.2 (ssRNA)
RNA: UUUGAUUAAUAUGAUAUCGUUCUUUCUCUUGUCUCUAUAUAUAUUCUUUCUCGAUAUCAUAUUAAUCUUU
B23: Ie_S2_P3E.2_K3.1_C3.2_H3.1_[+3CCCT]_A3.1_F3.1_T3.2 (ssRNA)
RNA: UUUGAUUAAUAUGAUAUCGUUCUUUCUCUUGUCCCUAUAUAUAUUCUUUCUCGAUAUCAUAUUAAUCUUU
B24: Ie_S2_P3E.2_K3.1_C3.2_H3.1_[+2CCTC]_A3.1_F3.1_T3.2 (ssRNA)
RNA: UUUGAUUAAUAUGAUAUCGUUCUUUCUCUUGCCUCUAUAUAUAUUCUUUCUCGAUAUCAUAUUAAUCUUU
B25: Ie_S2_P3E.2_K3.1_C3.2_H3.1_[+2CCCT]_A3.1_F3.1_T3.2 (ssRNA)
RNA: UUUGAUUAAUAUGAUAUCGUUCUUUCUCUUGCCCUUAUAUAUAUUCUUUCUCGAUAUCAUAUUAAUCUUU
B26: Ie_S2_P3E.2_K3.1_C3.2_H3.1_[+4CTCT]_A3.1_F3.1_T3.2 (ssRNA)
RNA: UUUGAUUAAUAUGAUAUCGUUCUUUCUCUUGUACUCUUAUAUAUUCUUUCUCGAUAUCAUAUUAAUCUUU
B27: Ie_S2_P3E.2_K3.1_C3.2_H3.1_[+3CCTC]_A3.1_F3.1_T3.2 (ssRNA)
RNA: UUUGAUUAAUAUGAUAUCGUUCUUUCUCUUGUCCUCAUAUAUAUUCUUUCUCGAUAUCAUAUUAAUCUUU
B28: Ie_S2_P3E.2_K3.1_C3.2_H3.1_[+2T]_A3.1_F3.1_T3.2 (ssRNA)
RNA: UUUGAUUAAUAUGAUAUCGUUCUUUCUCUUGUUAUAUAUAUUCUUUCUCGAUAUCAUAUUAAUCUUU
B29: Ie_S2_P3E.2_K3.1_C3.2_H3.1_A3.1_[+5T]_F3.1_T3.2 (ssRNA)
RNA: UUUGAUUAAUAUGAUAUCGUUCUUUCUCUUGUAUUAUAUAUUCUUUCUCGAUAUCAUAUUAAUCUUU
B30: Ie_S2_P3E.2_K3.1_C3.2_H3.1_[+4C]_A3.1_F3.1_T3.2 (ssRNA)
RNA: UUUGAUUAAUAUGAUAUCGUUCUUUCUCUUGUACUAUAUAUUCUUUCUCGAUAUCAUAUUAAUCUUU
B31: Ie_S2_P3E.2_K3.1_C3.2_H3.1_[+1TTCCT]_A3.1_F3.1_T3.2 (ssRNA)
RNA: UUUGAUUAAUAUGAUAUCGUUCUUUCUCUUUUCCUGUAUAUAUAUUCUUUCUCGAUAUCAUAUUAAUCUUU
B32: Ie_S2_P3E.2_K3.1_C3.2_H3.1_[+2CTCTC]_A3.1_F3.1_T3.2 (ssRNA)
RNA: UUUGAUUAAUAUGAUAUCGUUCUUUCUCUUGCUCUCUAUAUAUAUUCUUUCUCGAUAUCAUAUUAAUCUUU
B33: Ie_S2_P3E.2_K3.1_C3.2_H3.1_[+3CTCTC]_A3.1_F3.1_T3.2 (ssRNA)
RNA: UUUGAUUAAUAUGAUAUCGUUCUUUCUCUUGUCUCUCAUAUAUAUUCUUUCUCGAUAUCAUAUUAAUCUUU
B34: Ie_S2_P3E.2_K3.1_C3.2_H3.1_[+1CCCTT]_A3.1_F3.1_T3.2 (ssRNA)
RNA: UUUGAUUAAUAUGAUAUCGUUCUUUCUCUUCCCUUGUAUAUAUAUUCUUUCUCGAUAUCAUAUUAAUCUUU
B35: Ie_S2_P3E.2_K3.1_C3.2_H3.1_[+3CCCTT]_A3.1_F3.1_T3.2 (ssRNA)
RNA: UUUGAUUAAUAUGAUAUCGUUCUUUCUCUUGUCCCUUAUAUAUAUUCUUUCUCGAUAUCAUAUUAAUCUUU
B36: Ie_S2_P3E.2_K3.1_C3.2_H3.1_[+2CCTCT]_A3.1_F3.1_T3.2 (ssRNA)
RNA: UUUGAUUAAUAUGAUAUCGUUCUUUCUCUUGCCUCUUAUAUAUAUUCUUUCUCGAUAUCAUAUUAAUCUUU
B37: Ie_S2_P3E.2_K3.1_C3.2_H3.1_[+3TTCCT]_A3.1_F3.1_T3.2 (ssRNA)
RNA: UUUGAUUAAUAUGAUAUCGUUCUUUCUCUUGUUUCCUAUAUAUAUUCUUUCUCGAUAUCAUAUUAAUCUUU
B38: Ie_S2_P3E.2_K3.1_C3.2_H3.1_[+2TCTCT]_A3.1_F3.1_T3.2 (ssRNA)
RNA: UUUGAUUAAUAUGAUAUCGUUCUUUCUCUUGUCUCUUAUAUAUAUUCUUUCUCGAUAUCAUAUUAAUCUUU
B39: Ie_S2_P3E.2_K3.1_C3.2_H3.1_[+2TTCCT]_A3.1_F3.1_T3.2 (ssRNA)
RNA: UUUGAUUAAUAUGAUAUCGUUCUUUCUCUUGUUCCUUAUAUAUAUUCUUUCUCGAUAUCAUAUUAAUCUUU
B40: Ic_S2_P3E.1_K3.1_C3.1_H3.1_A3.1_[A6C]_F3.1_[T7C]_T3.1 (ssRNA)
RNA: UUUGAUUAAUAUGAUAUCGUUCUUUCUUGUAUCCAUUCUUUCUCGAUAUCAUAUUAAUCUUU
B41: Ic_S2_P3E.1_K3.1_C3.1_H3.1_A3.1_[A6T]_F3.1_[T7A]_T3.1 (ssRNA)
RNA: UUUGAUUAAUAUGAUAUCGUUCUUUCUUGUAUUAAUUCUUUCUCGAUAUCAUAUUAAUCUUU
B42: Ic_S2_P3E.1_K3.1_C3.1_H3.1_A3.1_[A6T]_F3.1_[T7C]_T3.1 (ssRNA)
RNA: UUUGAUUAAUAUGAUAUCGUUCUUUCUUGUAUUCAUUCUUUCUCGAUAUCAUAUUAAUCUUU
B43: Ic_S2_P3E.1_K3.1_C3.1_H3.1_A3.1_[A6C]_F3.1_[T7A]_T3.1 (ssRNA)
RNA: UUUGAUUAAUAUGAUAUCGUUCUUUCUUGUAUCAAUUCUUUCUCGAUAUCAUAUUAAUCUUU

Target: T1, PUF4 RNA-binding domain (Saccharomyces cerevisiae, UniProt P25339 537-888)
T1 sequence: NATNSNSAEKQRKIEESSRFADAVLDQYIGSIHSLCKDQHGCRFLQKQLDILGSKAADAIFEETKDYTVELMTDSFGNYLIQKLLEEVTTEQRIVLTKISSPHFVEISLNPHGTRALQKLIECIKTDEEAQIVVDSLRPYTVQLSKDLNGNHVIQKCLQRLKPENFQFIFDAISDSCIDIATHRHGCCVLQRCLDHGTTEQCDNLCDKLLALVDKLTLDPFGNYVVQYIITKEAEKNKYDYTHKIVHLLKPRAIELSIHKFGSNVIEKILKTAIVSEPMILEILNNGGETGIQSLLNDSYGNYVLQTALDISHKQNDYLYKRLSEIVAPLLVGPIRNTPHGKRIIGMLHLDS
Assay: Mg; RNA-MaP; 20 mM Na-HEPES pH 7.4, 30 mM KOAc, 0.75 mM MgCl2, 0.1% Tween-20, 5% glycerol, 0.1 mg/mL BSA, 2 mM DTT; 25 C; 0.0125-409.6 nM protein
Conditions: tags: N-His6-TEV cleaved; C-SNAP kept, Cy3B-labelled; label: tethered on chip by stalled RNA polymerase

Binder	Kd [nM]
B1	102
B2	14.6
B3	34
B4	3.75
B5	12.9
B6	93
B7	28.3
B8	2.33
B9	63.2
B10	9.73
B11	65.6
B12	13.5
B13	1.82
B14	1.08
B15	1.4
B16	15.5
B17	8.9
B18	17.3
B19	10.7
B20	6.23
B21	62.1
B22	21.2

Binder	Kd [nM]
B23	30.4
B24	162
B25	67.5
B26	3.27
B27	62.8
B28	8.08
B29	1.52
B30	0.5
B31	1.16
B32	61.8
B33	76.4
B34	1.15
B35	35.7
B36	112
B37	19.1
B38	21.5
B39	16.3
B40	148
B41	56.9
B42	114
B43	107
